Experimental data published in patent US7033788B2, “Protein derived from Agkistrodon saxatilis emelianov and process preparing the same” (priority 2002, dated 2006).

B1: Saxatilin (protein)
chain: EAGEECDCGAPANPCCDAATCKLRPGAQCAEGLCCDQCRFMKEGTICRMARGDDMDDYCNGISAGCPRNPFHA
B2: Recombinant Saxatilin: Saxatilin expressed in Pichia pastoris transformed with pPSAX, obtained in Example 6 (protein)
chain: B1 chain

What was measured:
[1] = system: αVβ3 integrin on HUVEC surface; assay: HUVEC adhesion to Saxatilin-coated plate; assay type: cell-based, human; conditions: pre-incubation of bFGF-stimulated HUVEC 20 min; FIG. 4b
Description: (§1) 96-well plate was coated with recombinant Saxatilin obtained in Example 6 (1 μg/well) as well as Vitronectin (0.5 μg/well) which were dissolved in phosphate buffered saline (PBS) for 16 hr at 4° C. After washing the plate, 10 mg/ml of heat-treated bovine serum albumin (BSA) was added for blocking of uncharged protein binding site. The plate was incubated for 1 hr and washed with PBS. HUVEC was trypsinized and washed with PBS three times, and then, resuspended in serum-free DMEM. 5×10^4 cells were mixed with anti-αVβ3 monoclonal antibody, a synthesized RGD peptide, GRGDSP (SEQ ID NO:7), a synthesized RGE peptide, GRGETP (SEQ ID NO:8) and Saxatilin, and pre-incubated for 20 min at 37° C. Then, the mixture was added to the wells of both Saxatilin and Vitronectin-coated 96-well plate. After 1 hr of incubation at 37° C. under an environment of 5% CO2, the plate was washed with PBS to remove unbound cells, and bound cells were fixed and stained with Coomassie blue. Optical absorbences of the wells were measured at 540 nm to count relative cell numbers (see: FIGS. 4a and 4b).

[2] = system: human platelet rich plasma (PRP); assay type: cell-based; conditions: method of Example 1 (collagen-induced, human PRP); read-out: IC50 determined by platelet aggregation inhibition assay
Description: To isolate Saxatilin from the venom of Agkistrodon saxatilis emelianov, 302.4 mg of crude venom from the snake was applied to a SEPHADEX™ G-75 gel filtration column (1.8×100 cm) equilibrated with PBS buffer, and fractionated at a flow rate of 20 ml/h. The activity of Saxatilin was determined by the platelet aggregation inhibition assay: The concentrated human platelet rich plasma (PRP) obtained from 400 ml of human blood was diluted to the concentration of 300,000 platelets/μl. The diluted PRP (450 μl) was mixed with 50 μl of PBS and then incubated in the aggregometer CHROMO-LOGT™, USA) at 37° C. for 3 minutes. After collagen ([…]) was added into the PRP solution to induce the platelet aggregation, the difference of light transmittance was measured.
Recombinant Saxatilin obtained in Example 6 was assayed by the platelet aggregation inhibition method described in Example 1, and compared with those of wild-type Saxatilin obtained in Example 1 and GRGDSP (SEQ ID NO:7) (see: Table 1), respectively.

[3] = system: αVβ3 integrin on HUVEC surface; assay: HUVEC adhesion to Vitronectin-coated plate; assay type: cell-based, human; conditions: pre-incubation of bFGF-stimulated HUVEC 20 min; FIG. 4a
Description: To confirm that inhibition of HUVEC proliferation by Saxatilin is due to the direct interaction of Saxatilin with Vitronectin receptor, αVβ3 integrin, localized on the HUVEC surface, it was investigated whether Saxatilin blocks HUVEC from binding to Vitronectin-coated 96-well plate.
as §1

HUVEC = assay: bFGF-stimulated HUVEC proliferation inhibition assay; assay type: cell-based, human; conditions: 0, 20, 30 μg/ml; 1 ng/ml bFGF; 72 hr; FIG. 3
Description: To investigate whether recombinant Saxatilin containing RGD sequence inhibits the endothelial cell proliferation, proliferation inhibition assay was performed using HUVEC.
HUVEC was cultured on 24-well microplate coated with gelatin at 37° C. for 24 hr under an environment of 5% CO2. […] Then, cells were further incubated for 20 min and treated with 1 ng/ml of bFGF solution. After incubation of 72 hr, cells were trypsinized and the cell numbers were counted to determine cell viability (see: FIG. 3).

BCE cell = assay: bFGF-stimulated BCE cell proliferation; assay type: cell-based
[4] = system: Lewis lung carcinoma cells; assay: Metastatic Lewis lung carcinoma growth in mice; assay type: in vivo, C57BL/6 mice
Description: 1×10^6 Lewis lung carcinoma cells (purchased from […], Rockville, Md., USA) were injected into the tails of 8-week-old male C57BL/6 mice (Charles river, Japan), intravenously. At 4 day after injection, recombinant Saxatilin obtained from Example 6 was periodically applied to mice by intravenous injection in an amount of 1.25 mg/kg/day (once per day). After 4-weeks of periodical treatment, tumor-bearing mice were sacrificed, and the number of tumor colony was counted by using stereomicroscope.
Furthermore, to observe the direct effect of Saxatilin on the metastatic lung carcinoma, histochemical study was carried out. Tumor-bearing lung tissue was fixed in paraffin in accordance with the conventionally known method followed by treatment of Bouin's solution for 4 hours. The tissue section of 4 μm thickness was infiltrated with trypsin at 37° C. for 10 min and washed with PBS. The tissue section was stained with hematoxylin and eosin, and then mounted (see: FIGS. 6a, 6b and 6c). FIG. 6a is a photograph showing lung tissue without Lewis lung carcinoma cell; FIG. 6b, lung tissue implanted with Lewis lung carcinoma cell and then treated with PBS; and, FIG. 6c, lung tissue implanted with Lewis lung carcinoma cell and then treated with Saxatilin. […] As illustrated as above, it was assumed that the suppression of metastatic tumor growth in Saxatilin-treated mice was due to blockade of Saxatilin against angiogenesis, which was essential for the secondary tumor growth.

[5] = system: chick chorioallantoic membrane (CAM); assay: Chick chorioallantoic membrane (CAM) assay, bFGF-stimulated angiogenesis; assay type: in vivo; conditions: 5 μg applied to CAM, observed at 72 hr; FIG. 5b
Description: Chick chorioallantoic membrane (CAM) assay, a simulated in vivo model, was carried out to examine the effect of Saxatilin on bFGF-stimulated angiogenesis. A part of the rind of fertilized 3-day-old egg was broken carefully, and sealed with transparent tape, and incubated for 10 days at 37° C. under an environment of 60% humidity. Then, bFGF was applied to the chick chorioallantoic membrane (CAM) of individual embryo (6 ng/embryo) to induce angiogenesis. After further incubation of 24 hr, PBS as a negative control and 5 μg recombinant Saxatilin obtained from Example 6 were applied to CAM, respectively. At 72 hr after treatment, the blood vessels of embryos were observed (see: FIGS. 5a and 5b).

[6] = system: human platelet rich plasma; assay: Platelet aggregation inhibition assay, ADP-induced (Example 5); assay type: cell-based
Description: After ADP was added into each of the PRP solutions to induce the platelet aggregation, the turbidity was measured, respectively (see: FIG. 1).

male C57BL/6 mouse = assay: Acute toxicity (LD50); assay type: in vivo; conditions: subcutaneous injection, 7 days
Description: To examine the acute toxicity of Saxatilin as anti-platelet aggregation agent and anti-tumor agent, Saxatilin was injected into male C57BL/6 mouse subcutaneously and the dead were counted to determine LD50 for 7 days.

ICR mice = assay: Collagen/epinephrine-induced thrombosis in mice, viability; assay type: in vivo, mouse; conditions: 10 min before collagen + epinephrine
Description: When a mixture of collagen and epinephrine was injected into mice intravenously, thrombus was formed in pulmonary artery, which led to paralysis, dilation of pupil, laboring breath and convulsions, and finally 70% of the mice died not more than 5 min. Thus, it was investigated whether the intravenous injection of recombinant Saxatilin could reduce the thrombosis symptoms.
At 10 minutes after Saxatilin (0, 0.1, 0.25 and 0.5 mg/kg dissolved in 0.1 ml PBS, respectively) was intravenously injected into the tails of ICR mice, the mixture of collagen and epinephrine (120 μg collagen and 12 μg epinephrine in 0.1 ml PBS) was also injected into the tails of ICR mice, intravenously, and the viability was determined (see: Table 2).

[7] = 1.25 mg/kg/day i.v. from day 4, 4 weeks, C57BL/6 mice

Molecule | HUVEC adhering to Saxatilin [1] | IC50 [2] [nM] | HUVEC adhering to Vitronectin [3] | effect on HUVEC growth (HUVEC) | bFGF-stimulated BCE cell proliferation (BCE cell) | Average colony number [4, 7] | Inhibition rate (%) [4, 7] [%] | effect on metastatic tumor growth ([4]; 1.25 mg/kg/day i.v., 4 weeks) | metastatic tumor growth in lung tissue, histochemical study ([4]; hematoxylin and eosin stained lung sections, FIG. 6c) | toxicity on tested mice ([4]; tumor-bearing mice, 1.25 mg/kg/day i.v.) | effect on bFGF-stimulated angiogenesis (CAM) [5] | IC50 ([6]; ADP-induced aggregation, human PRP, 25° C.) [nM] | inhibitory effect relative to GRGDSP peptide ([6]; ADP-induced platelet aggregation, more potent than GRGDSP) [times] | LD50 (male C57BL/6 mouse) | Mortal group/Total group (ICR mice; 0.1 mg/kg i.v.) | Viability (ICR mice; 0.1 mg/kg i.v.) | Mortal group/Total group (ICR mice; 0.25 mg/kg i.v.) | Viability (ICR mice; 0.25 mg/kg i.v.) | Mortal group/Total group (ICR mice; 0.5 mg/kg i.v.) | Viability (ICR mice; 0.5 mg/kg i.v.)
N=C(N)NCCC[C@H](NC(=O)CN)C(=O)NCC(=O)N[C@@H](CC(=O)O)C(=O)N[C@@H](CO)C(=O)N1CCC[C@H]1C(=O)O [GRGDSP, reference compound] | prevented HUVEC from adhering | 270000 | prevented HUVEC from adhering |  |  |  |  |  |  |  |  |  |  |  |  |  |  |  |  | 
B1 | prevented HUVEC from adhering |  | prevented HUVEC from adhering | inhibited the HUVEC growth in a dose-dependent manner | potently inhibited | 0.7 ± 0.6 | 95 | potently inhibited the metastatic tumor growth | not observed | no toxicity | had an inhibitory effect on angiogenesis | 179 | 1000 | about 1100 mg/kg | 16/20 | 20 | 11/20 | 55 | 3/20 | 85
B2 |  | 139 |  |  |  |  |  |  |  |  |  |  |  |  |  |  |  |  |  | 
